Experimental data as given in PMC10547376.

Target: actively translating polysomes (cytosolic ribosomes) (human (endogenous in HeLa, HT29))
Experiment: co-sedimentation

B1: TRAP1 (endogenous) (natural protein)
chain: STQTAEDKEEPLHSIISSTESVQGSTSKHEFQAETKKLLDIVARSLYSEKEVFIRELISNASDALEKLRHKLVSDGQALPEMEIHLQTNAEKGTITIQDTGIGMTQEELVSNLGTIARSGSKAFLDALQNQAEASSKIIGQFGVGFYSAFMVADRVEVYSRSAAPGSLGYQWLSDGSGVFEIAEASGVRTGTKIIIHLKSDCKEFSSEARVRDVVTKYSNFVSFPLYLNGRRMNTLQAIWMMDPKDVREWQHEEFYRYVAQAHDKPRYTLHYKTDAPLNIRSIFYVPDMKPSMFDVSRELGSSVALYSRKVLIQTKATDILPKWLRFIRGVVDSEDIPLNLSRELLQESALIRKLRDVLQQRLIKFFIDQSKKDAEKYAKFFEDYGLFMREGIVTATEQEVKEDIAKLLRYESSALPSGQLTSLSEYASRMRAGTRNIYYLCAPNRHLAEHSPYYEAMKKKDTEVLFCFEQFDELTLLHLREFDKKKLISVETDIVVDHYKEEKFEDRSPAAECLSEKETEELMAWMRNVLGSRVTNVKVTLRLDTHPAMVTVLEMGAARHFLRMQQLAKTQEERAQLLQPTLEINPRHALIKKLNQLRASEPGLAQLLVDQIYENAMIAAGLVDDPRAMVGRLNELLVKALERH
percent of total TRAP1 in the polysomal fractions: > 0.7%
